Measured values: PMC12118398

Sequence of SFPQ-YFP (natural protein) (P23246 whole entry): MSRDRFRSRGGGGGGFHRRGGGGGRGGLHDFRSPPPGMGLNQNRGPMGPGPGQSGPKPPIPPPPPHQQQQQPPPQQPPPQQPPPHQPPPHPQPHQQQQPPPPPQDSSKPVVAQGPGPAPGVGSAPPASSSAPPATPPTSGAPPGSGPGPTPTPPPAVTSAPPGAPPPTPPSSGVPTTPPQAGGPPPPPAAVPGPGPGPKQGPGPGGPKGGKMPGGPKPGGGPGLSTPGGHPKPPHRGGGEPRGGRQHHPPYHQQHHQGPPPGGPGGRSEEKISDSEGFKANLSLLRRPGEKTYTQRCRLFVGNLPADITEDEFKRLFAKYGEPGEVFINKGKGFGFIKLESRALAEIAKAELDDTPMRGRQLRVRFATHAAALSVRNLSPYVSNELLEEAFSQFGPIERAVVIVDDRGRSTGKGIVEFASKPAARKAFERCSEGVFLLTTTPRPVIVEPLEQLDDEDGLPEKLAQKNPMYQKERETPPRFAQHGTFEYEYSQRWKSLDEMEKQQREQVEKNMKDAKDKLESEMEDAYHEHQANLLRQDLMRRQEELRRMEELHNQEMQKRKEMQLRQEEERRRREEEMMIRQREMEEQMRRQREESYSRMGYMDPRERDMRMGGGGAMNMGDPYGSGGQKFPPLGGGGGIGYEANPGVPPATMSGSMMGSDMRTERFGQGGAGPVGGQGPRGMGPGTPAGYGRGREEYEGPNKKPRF
Sequence of YFP-FXR2_(14-399) (P51116 14-399): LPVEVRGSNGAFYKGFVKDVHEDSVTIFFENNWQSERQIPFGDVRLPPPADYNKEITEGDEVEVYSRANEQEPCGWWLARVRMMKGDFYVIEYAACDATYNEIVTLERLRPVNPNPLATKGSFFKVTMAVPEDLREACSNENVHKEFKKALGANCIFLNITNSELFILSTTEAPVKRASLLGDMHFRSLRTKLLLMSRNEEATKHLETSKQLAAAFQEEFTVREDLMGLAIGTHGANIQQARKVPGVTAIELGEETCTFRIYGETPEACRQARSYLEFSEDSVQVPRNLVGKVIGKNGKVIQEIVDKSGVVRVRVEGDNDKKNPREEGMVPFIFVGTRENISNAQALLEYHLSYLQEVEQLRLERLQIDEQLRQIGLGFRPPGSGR
Sequence of FXR1-CFP (natural protein) (P51114 2-621): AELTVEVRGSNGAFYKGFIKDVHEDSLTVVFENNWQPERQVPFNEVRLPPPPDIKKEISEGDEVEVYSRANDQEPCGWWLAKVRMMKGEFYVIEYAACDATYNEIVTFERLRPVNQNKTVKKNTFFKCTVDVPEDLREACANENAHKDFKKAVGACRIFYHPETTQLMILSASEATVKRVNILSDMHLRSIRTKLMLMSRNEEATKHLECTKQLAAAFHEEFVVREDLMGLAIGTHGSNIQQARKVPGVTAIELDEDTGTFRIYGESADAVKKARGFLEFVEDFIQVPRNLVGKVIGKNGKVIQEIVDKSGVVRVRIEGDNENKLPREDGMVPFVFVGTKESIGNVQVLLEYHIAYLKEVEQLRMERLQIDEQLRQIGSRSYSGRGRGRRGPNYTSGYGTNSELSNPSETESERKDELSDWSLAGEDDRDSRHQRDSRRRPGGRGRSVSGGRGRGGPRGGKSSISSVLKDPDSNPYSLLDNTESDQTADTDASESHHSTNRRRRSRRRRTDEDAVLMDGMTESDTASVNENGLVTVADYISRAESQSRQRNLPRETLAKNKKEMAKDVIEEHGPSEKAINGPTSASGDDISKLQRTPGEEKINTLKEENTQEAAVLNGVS

These substances were tested against FXR1-CFP (human) (assay: FRET or BRET).
SFPQ-YFP (natural protein) was tested, and the FRET efficiency was 9.1%. “YFP-FXR2_(14-399) (from UniProt P51116 14-399) (domain or fragment)” showed an FRET efficiency of 8.3%. Substance FXR1-CFP (natural protein) has an FRET efficiency of 8.9%. Work on “YFP-FMRP_(1-380) (from UniProt Q06787 1-380) (domain or fragment)” yielded an FRET efficiency of 9.7%.
